Key:
[1] = biological target: FLAG-tagged WAVE2 stably expressed in A431 cells (UniProt Q9Y6W5); experiment: co-IP
[2] = biological target: Recombinant full-length WAVE2 tagged with GST at its COOH terminus (UniProt Q9Y6W5); experiment: dual polarization interferometry
Sequence of Recombinant full-length WAVE2 tagged with GST at its COOH terminus (Q9Y6W5 whole entry): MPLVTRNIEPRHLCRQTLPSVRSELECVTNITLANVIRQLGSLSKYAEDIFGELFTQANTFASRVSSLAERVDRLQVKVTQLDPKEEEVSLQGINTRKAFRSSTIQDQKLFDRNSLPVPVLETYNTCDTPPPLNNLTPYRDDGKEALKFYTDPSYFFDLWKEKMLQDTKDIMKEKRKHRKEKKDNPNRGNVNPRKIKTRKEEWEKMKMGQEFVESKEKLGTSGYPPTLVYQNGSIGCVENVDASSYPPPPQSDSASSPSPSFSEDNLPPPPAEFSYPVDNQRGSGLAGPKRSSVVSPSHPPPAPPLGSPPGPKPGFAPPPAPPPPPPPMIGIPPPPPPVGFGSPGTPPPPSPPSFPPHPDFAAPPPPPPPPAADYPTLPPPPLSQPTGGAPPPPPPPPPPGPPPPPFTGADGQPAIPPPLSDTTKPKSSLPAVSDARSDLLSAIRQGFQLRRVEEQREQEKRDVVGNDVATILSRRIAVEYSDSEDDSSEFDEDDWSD

Sequence of FLAG-tagged WAVE2 stably expressed in A431 cells (Q9Y6W5 whole entry): as above

Substance	molar ratio of IRSp53 to WAVE2 in the purified complex [1]	Kd [2]
IRSp53, endogenous in A431 cells (from UniProt Q9UQB8 1-552) (natural protein)	0.0005	–
SH3 domain of IRSp53 (aa 363–521) (from UniProt Q9UQB8 363-521) (domain or fragment)	–	5.7 µM

From PMC2063866
